According to PMC10540216, “Activity Guided Azide-methyllysine Photo-trapping for Substrate Profiling of Lysine Demethylases” (Journal of the American Chemical Society, 2023):

Test system: KDM4A-I71AzF
Test: CASI: photo-crosslinking with HEK293T cell extracts, StrepTactin enrichment and LC-MS/MS proteomics;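 note: lysates from HEK293T cells pretreated with a KDM4 inhibitor to raise proteome methylation, affinity-purified after ±UV, gel-resolved, trypsin-digested, with exclusive unique peptides per protein averaged per condition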
Format: binding, human
Conditions: sheet "Final results but with 0.01"

B1: PAIRB_HUMAN (protein, UniProt Q8NC51 2-408, looked up)
SERPINE1 mRNA-binding protein …: PGHLQEGFGCVVTNRFDQLFDDESDPFEVLKAAENKKKEAGGGGVGGPGAKSAAQAAAQTNSNAAGKQLRKESQKDRKNPLPPSVGVVDKKEETQPPVALKKEGIRRVGRRPDQQLQGEGKIIDRRPERRPPRERRFEKPLEEKGEGGEFSVDRPIIDRPIRGRGGLGRGRGGRGRGMGRGDGFDSRGKREFDRHSGSDRSSFSHYSGLKHEDKRGGSGSHNWGTVKDELTESPKYIQKQISYNYSDLDQSNVTEETPEGEEHHPVADTENKENEVEEVKEEGPKEMTLDEWKAIQNKDRAKVEFNIRKPNEGADGQWKKGFVLHKSKSEEAHAEDSVMDHHFRKPANDITSQLEINFGDLGRPGRGGRGGRGGRGRGGRPNRGSRTDKSSASAPDVDDPEAFPALA
  Fold change (+UV/-UV): 0.8571

B2: LMNA_HUMAN (protein, UniProt P02545 1-661, looked up)
Prelamin-A/C: METPSQRRATRSGAQASSTPLSPTRITRLQEKEDLQELNDRLAVYIDRVRSLETENAGLRLRITESEEVVSREVSGIKAAYEAELGDARKTLDSVAKERARLQLELSKVREEFKELKARNTKKEGDLIAAQARLKDLEALLNSKEAALSTALSEKRTLEGELHDLRGQVAKLEAALGEAKKQLQDEMLRRVDAENRLQTMKEELDFQKNIYSEELRETKRRHETRLVEIDNGKQREFESRLADALQELRAQHEDQVEQYKKELEKTYSAKLDNARQSAERNSNLVGAAHEELQQSRIRIDSLSAQLSQLQKQLAAKEAKLRDLEDSLARERDTSRRLLAEKEREMAEMRARMQQQLDEYQELLDIKLALDMEIHAYRKLLEGEEERLRLSPSPTSQRSRGRASSHSSQTQGGGSVTKKRKLESTESRSSFSQHARTSGRVAVEEVDEEGKFVRLRNKSNEDQSMGNWQIKRQNGDDPLLTYRFPPKFTLKAGQVVTIWAAGAGATHSPPTDLVWKAQNTWGCGNSLRTALINSTGEEVAMRKLVRSVTVVEDDEDEDGDDLLHHHHGSHCSSSGDPAEYNLRSRTVLCGTCGQPADKASASGSGAQVGGPISSGSSASSVTVTRSYRSVGGSGGGSFGDNLVTRSYLLGNSSPRTQSPQNC
  Fold change (+UV/-UV): 1.25

B3: NONO_HUMAN (protein, UniProt Q15233 1-471, looked up)
Non-POU domain-containing …: MQSNKTFNLEKQNHTPRKHHQHHHQQQHHQQQQQQPPPPPIPANGQQASSQNEGLTIDLKNFRKPGEKTFTQRSRLFVGNLPPDITEEEMRKLFEKYGKAGEVFIHKDKGFGFIRLETRTLAEIAKVELDNMPLRGKQLRVRFACHSASLTVRNLPQYVSNELLEEAFSVFGQVERAVVIVDDRGRPSGKGIVEFSGKPAARKALDRCSEGSFLLTTFPRPVTVEPMDQLDDEEGLPEKLVIKNQQFHKEREQPPRFAQPGSFEYEYAMRWKALIEMEKQQQDQVDRNIKEAREKLEMEMEAARHEHQVMLMRQDLMRRQEELRRMEELHNQEVQKRKQLELRQEEERRRREEEMRRQQEEMMRRQQEGFKGTFPDAREQEIRMGQMAMGGAMGINNRGAMPPAPVPAGTPAPPGPATMMPDGTLGLTPPTTERFGQAATMEGIGAIGGTPPAFNRAAPGAEFAPNKRRRY
  Fold change (+UV/-UV): 1.778

B4: HNRPL_HUMAN (protein, UniProt P14866 1-589, looked up)
Heterogeneous nuclear …: MSRRLLPRAEKRRRRLEQRQQPDEQRRRSGAMVKMAAAGGGGGGGRYYGGGSEGGRAPKRLKTDNAGDQHGGGGGGGGGAGAAGGGGGGENYDDPHKTPASPVVHIRGLIDGVVEADLVEALQEFGPISYVVVMPKKRQALVEFEDVLGACNAVNYAADNQIYIAGHPAFVNYSTSQKISRPGDSDDSRSVNSVLLFTILNPIYSITTDVLYTICNPCGPVQRIVIFRKNGVQAMVEFDSVQSAQRAKASLNGADIYSGCCTLKIEYAKPTRLNVFKNDQDTWDYTNPNLSGQGDPGSNPNKRQRQPPLLGDHPAEYGGPHGGYHSHYHDEGYGPPPPHYEGRRMGPPVGGHRRGPSRYGPQYGHPPPPPPPPEYGPHADSPVLMVYGLDQSKMNCDRVFNVFCLYGNVEKVKFMKSKPGAAMVEMADGYAVDRAITHLNNNFMFGQKLNVCVSKQPAIMPGQSYGLEDGSCSYKDFSESRNNRFSTPEQAAKNRIQHPSNVLHFFNAPLEVTEENFFEICDELGVKRPSSVKVFSGKSERSSSGLLEWESKSDALETLGFLNHYQMKNPNGPYPYTLKLCFSTAQHAS
  Fold change (+UV/-UV): 1.125

B5: LMNB1_HUMAN (protein, UniProt P20700 2-583, looked up)
Lamin-B1: ATATPVPPRMGSRAGGPTTPLSPTRLSRLQEKEELRELNDRLAVYIDKVRSLETENSALQLQVTEREEVRGRELTGLKALYETELADARRALDDTARERAKLQIELGKCKAEHDQLLLNYAKKESDLNGAQIKLREYEAALNSKDAALATALGDKKSLEGDLEDLKDQIAQLEASLAAAKKQLADETLLKVDLENRCQSLTEDLEFRKSMYEEEINETRRKHETRLVEVDSGRQIEYEYKLAQALHEMREQHDAQVRLYKEELEQTYHAKLENARLSSEMNTSTVNSAREELMESRMRIESLSSQLSNLQKESRACLERIQELEDLLAKEKDNSRRMLTDKEREMAEIRDQMQQQLNDYEQLLDVKLALDMEISAYRKLLEGEEERLKLSPSPSSRVTVSRASSSRSVRTTRGKRKRVDVEESEASSSVSISHSASATGNVCIEEIDVDGKFIRLKNTSEQDQPMGGWEMIRKIGDTSVSYKYTSRYVLKAGQTVTIWAANAGVTASPPTDLIWKNQNSWGTGEDVKVILKNSQGEEVAQRSTVFKTTIPEEEEEEEEAAGVVVEEELFHQQGTPRASNRSC
  Fold change (+UV/-UV): 0.7273

B6: TBB5_HUMAN (protein, UniProt P07437 1-444, looked up)
Tubulin beta chain: MREIVHIQAGQCGNQIGAKFWEVISDEHGIDPTGTYHGDSDLQLDRISVYYNEATGGKYVPRAILVDLEPGTMDSVRSGPFGQIFRPDNFVFGQSGAGNNWAKGHYTEGAELVDSVLDVVRKEAESCDCLQGFQLTHSLGGGTGSGMGTLLISKIREEYPDRIMNTFSVVPSPKVSDTVVEPYNATLSVHQLVENTDETYCIDNEALYDICFRTLKLTTPTYGDLNHLVSATMSGVTTCLRFPGQLNADLRKLAVNMVPFPRLHFFMPGFAPLTSRGSQQYRALTVPELTQQVFDAKNMMAACDPRHGRYLTVAAVFRGRMSMKEVDEQMLNVQNKNSSYFVEWIPNNVKTAVCDIPPRGLKMAVTFIGNSTAIQELFKRISEQFTAMFRRKAFLHWYTGEGMDEMEFTEAESNMNDLVSEYQQYQDATAEEEEDFGEEAEEEA
  Fold change (+UV/-UV): 0.75

B7: ECHB_HUMAN (protein, UniProt P55084 34-474, looked up)
Trifunctional enzyme subunit …: AAPAVQTKTKKTLAKPNIRNVVVVDGVRTPFLLSGTSYKDLMPHDLARAALTGLLHRTSVPKEVVDYIIFGTVIQEVKTSNVAREAALGAGFSDKTPAHTVTMACISANQAMTTGVGLIASGQCDVIVAGGVELMSDVPIRHSRKMRKLMLDLNKAKSMGQRLSLISKFRFNFLAPELPAVSEFSTSETMGHSADRLAAAFAVSRLEQDEYALRSHSLAKKAQDEGLLSDVVPFKVPGKDTVTKDNGIRPSSLEQMAKLKPAFIKPYGTVTAANSSFLTDGASAMLIMAEEKALAMGYKPKAYLRDFMYVSQDPKDQLLLGPTYATPKVLEKAGLTMNDIDAFEFHEAFSGQILANFKAMDSDWFAENYMGRKTKVGLPPLEKFNNWGGSLSLGHPFGATGCRLVMAAANRLRKEGGQYGLVAACAAGGQGHAMIVEAYPK
  Fold change (+UV/-UV): 0

B8: ACINU_HUMAN (protein, UniProt Q9UKV3 1-1341, looked up)
Apoptotic chromatin …: MWRRKHPRTSGGTRGVLSGNRGVEYGSGRGHLGTFEGRWRKLPKMPEAVGTDPSTSRKMAELEEVTLDGKPLQALRVTDLKAALEQRGLAKSGQKSALVKRLKGALMLENLQKHSTPHAAFQPNSQIGEEMSQNSFIKQYLEKQQELLRQRLEREAREAAELEEASAESEDEMIHPEGVASLLPPDFQSSLERPELELSRHSPRKSSSISEEKGDSDDEKPRKGERRSSRVRQARAAKLSEGSQPAEEEEDQETPSRNLRVRADRNLKTEEEEEEEEEEEEDDEEEEGDDEGQKSREAPILKEFKEEGEEIPRVKPEEMMDERPKTRSQEQEVLERGGRFTRSQEEARKSHLARQQQEKEMKTTSPLEEEEREIKSSQGLKEKSKSPSPPRLTEDRKKASLVALPEQTASEEETPPPLLTKEASSPPPHPQLHSEEEIEPMEGPAPAVLIQLSPPNTDADTRELLVSQHTVQLVGGLSPLSSPSDTKAESPAEKVPEESVLPLVQKSTLADYSAQKDLEPESDRSAQPLPLKIEELALAKGITEECLKQPSLEQKEGRRASHTLLPSHRLKQSADSSSSRSSSSSSSSSRSRSRSPDSSGSRSHSPLRSKQRDVAQARTHANPRGRPKMGSRSTSESRSRSRSRSRSASSNSRKSLSPGVSRDSSTSYTETKDPSSGQEVATPPVPQLQVCEPKERTSTSSSSVQARRLSQPESAEKHVTQRLQPERGSPKKCEAEEAEPPAATQPQTSETQTSHLPESERIHHTVEEKEEVTMDTSENRPENDVPEPPMPIADQVSNDDRPEGSVEDEEKKESSLPKSFKRKISVVSATKGVPAGNSDTEGGQPGRKRRWGASTATTQKKPSISITTESLKSLIPDIKPLAGQEAVVDLHADDSRISEDETERNGDDGTHDKGLKICRTVTQVVPAEGQENGQREEEEEEKEPEAEPPVPPQVSVEVALPPPAEHEVKKVTLGDTLTRRSISQQKSGVSITIDDPVRTAQVPSPPRGKISNIVHISNLVRPFTLGQLKELLGRTGTLVEEAFWIDKIKSHCFVTYSTVEEAVATRTALHGVKWPQSNPKFLCADYAEQDELDYHRGLLVDRPSETKTEEQGIPRPLHPPPPPPVQPPQHPRAEQREQERAVREQWAEREREMERRERTRSEREWDRDKVREGPRSRSRSRDRRRKERAKSKEKKSEKKEKAQEEPPAKLLDDLFRKTKAAPCIYWLPLTDSQIVQKEAERAERAKEREKRRKEQEEEEQKEREKEAERERNRQLEREKRREHSRERDRERERERERDRGDRDRDRERDRERGRERDRRDTKRHSRSRSRSTPVRDRGGRR
  Fold change (+UV/-UV): 2

B9: IF4A2_HUMAN (protein, UniProt Q14240 1-407, looked up)
Eukaryotic initiation factor …: MSGGSADYNREHGGPEGMDPDGVIESNWNEIVDNFDDMNLKESLLRGIYAYGFEKPSAIQQRAIIPCIKGYDVIAQAQSGTGKTATFAISILQQLEIEFKETQALVLAPTRELAQQIQKVILALGDYMGATCHACIGGTNVRNEMQKLQAEAPHIVVGTPGRVFDMLNRRYLSPKWIKMFVLDEADEMLSRGFKDQIYEIFQKLNTSIQVVLLSATMPTDVLEVTKKFMRDPIRILVKKEELTLEGIKQFYINVEREEWKLDTLCDLYETLTITQAVIFLNTRRKVDWLTEKMHARDFTVSALHGDMDQKERDVIMREFRSGSSRVLITTDLLARGIDVQQVSLVINYDLPTNRENYIHRIGRGGRFGRKGVAINFVTEEDKRILRDIETFYNTTVEEMPMNVADLI
  Fold change (+UV/-UV): 200

B10: ATPA_HUMAN (protein, UniProt P25705 44-553, looked up)
ATP synthase F(1) complex …: QKTGTAEMSSILEERILGADTSVDLEETGRVLSIGDGIARVHGLRNVQAEEMVEFSSGLKGMSLNLEPDNVGVVVFGNDKLIKEGDIVKRTGAIVDVPVGEELLGRVVDALGNAIDGKGPIGSKTRRRVGLKAPGIIPRISVREPMQTGIKAVDSLVPIGRGQRELIIGDRQTGKTSIAIDTIINQKRFNDGSDEKKKLYCIYVAIGQKRSTVAQLVKRLTDADAMKYTIVVSATASDAAPLQYLAPYSGCSMGEYFRDNGKHALIIYDDLSKQAVAYRQMSLLLRRPPGREAYPGDVFYLHSRLLERAAKMNDAFGGGSLTALPVIETQAGDVSAYIPTNVISITDGQIFLETELFYKGIRPAINVGLSVSRVGSAAQTRAMKQVAGTMKLELAQYREVAAFAQFGSDLDAATQQLLSRGVRLTELLKQGQYSPMAIEEQVAVIYAGVRGYLDKLEPSKITKFENAFLSHVVSQHQALLGTIRADGKISEQSDAKLKEIVTNFLAGFEA
  Fold change (+UV/-UV): 1.4
